# Laboratory results: PMC5330840
# Target: Entamoeba histolytica ADP-forming acetyl-CoA synthetase, wild type (Entamoeba histolytica)
# Experiment: SEC
substance,measurement,value
"Entamoeba histolytica ADP-forming acetyl-CoA synthetase, wild type (enzyme)",stoichiometry N,2
